Test results: doi:10.1101/2023.08.15.553389

Biological target: IgG1 Fc L234C/E382A ("less-crystallisable" Fc with L234C exchange)
Experiment: crystal structure

B1: EndoS2 (38-843) D184A/E186L, inactive exchange variant (enzyme)
chain: EKTVQTGKTDQQVGAKLVQEIREGKRGPLYAGYFRTWHDRASTGIDGKQQHPENTMAEVPKEVDILFVFHDHTASDSPFWSELKDSYVHKLHQQGTALVQTIGVNELNGRTGLSKDYPDTPEGNKALAAAIVKAFVTDRGVDGLDIAILHEFTNKRTPEEDARALNVFKEIAQLIGKNGSDKSKLLIMDTTLSVENNPIFKGIAEDLDYLLRQYYGSQGGEAEVDTINSDWNQYQNYIDASQFMIGFSFFEESASKGNLWFDVNEYDPNNPEKGKDIEGTRAKKYAEWQPSTGGLKAGIFSYAIDRDGVAHVPSTYKNRTSTNLQRHEVDNISHTDYTVSRKLKTLMTEDKRYDVIDQKDIPDPALREQIIQQVGQYKGDLERYNKTLVLTGDKIQNLKGLEKLSKLQKLELRQLSNVKEITPELLPESMKKDAELVMVGMTGLEKLNLSGLNRQTLDGIDVNSITHLTSFDISHNSLDLSEKSEDRKLLMTLMEQVSNHQKITVKNTAFENQKPKGYYPQTYDTKEGHYDVDNAEHDILTDFVFGTVTKRNTFIGDEEAFAIYKEGAVDGRQYVSKDYTYEAFRKDYKGYKVHLTASNLGETVTSKVTATTDETYLVDVSDGEKVVHHMKLNIGSGAIMMENLAKGAKVIGTSGDFEQAKKIFDGEKSDRFFTWGQTNWIAFDLGEINLAKEWRLFNAETNTEIKTDSSLNVAKGRLQILKDTTIDLEKMDIKNRKEYLSNDENWTDVAQMDDAKAIFNSKLSNVLSRYWRFCVDGGASSYYPQYTELQILGQRLSNDVANTLKD
B1 was tested, and the stoichiometry N (EndoS2 molecules per Fc homodimer) was 2.
